Laboratory results taken from paper PMC12215968.

Molecular target: T1, nucleoside-disphosphate kinase B (NME2) (human (endogenous in HEK293)), P22392
T1 chain: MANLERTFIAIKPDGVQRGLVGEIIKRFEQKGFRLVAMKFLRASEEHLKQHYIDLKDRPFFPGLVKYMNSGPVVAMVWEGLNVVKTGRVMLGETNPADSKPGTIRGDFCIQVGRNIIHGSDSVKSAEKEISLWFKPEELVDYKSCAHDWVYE
Assay: cross-linking; in vivo: intact 293 HBTH-CSN2 cells, 1 mM TSTO in PBS pH 7.4, 1 h, room temperature; SEC-HpHt separation of peptides, LC-MSn
Settings: remark: other sources report otherwise

B1: nucleoside-disphosphate kinase B (NME2), P22392 1-152 (natural protein)
chain: MANLERTFIAIKPDGVQRGLVGEIIKRFEQKGFRLVAMKFLRASEEHLKQHYIDLKDRPFFPGLVKYMNSGPVVAMVWEGLNVVKTGRVMLGETNPADSKPGTIRGDFCIQVGRNIIHGSDSVKSAEKEISLWFKPEELVDYKSCAHDWVYE
stoichiometry N: 3
